Measurements published in paper PMC9412841 (ACS Applied Materials & Interfaces, 2022).

Legend:
[1] = μPET/μCT stability study of ^64Cu-labeled pTrMA-co-DOTA (fresh, plasma-incubated, free ^64CuCl2); assay type: in vivo, C57BL/6 mice; settings: female mice, n = 4, i.v., fresh 200 μCi, plasma-incubated (37 °C, 24 h) 100 μCi, ^64CuCl2 100 μCi, mean ± SEM
Protocol: To determine if organ signal attenuation was occurring because ^64Cu was released from pTrMA-co-DOTA in vivo due to insufficiently strong DOTA chelation, the stability of the radiolabeled polymer as well as the biodistribution and excretion of free ^64Cu was investigated by further μPET/μCT imaging. Mice (female, n = 4) were i.v. injected with the fresh ^64Cu-labeled pTrMA-co-DOTA (200 μCi), ^64Cu-pTrMA-co-DOTA after incubating in plasma at 37 °C for 24 h (100 μCi), and free ^64CuCl2 (100 μCi). […] If ^64Cu was readily leached from the DOTA group when incubated in plasma, the shifting biodistribution in the organs with time would have been the same as with the mice exposed to free ^64CuCl2. […]
Figure 6 Time course biodistribution and excretion of fresh ^64Cu-labeled pTrMA-co-DOTA (blue), plasma-incubated ^64Cu-labeled pTrMA-co-DOTA (red), and free ^64CuCl2 (green) from the organs (a) brain, (b) heart, (c) liver, (d) left kidney, (e) right kidney, (f) bladder, (g) muscle, (h) left lung, (i) right lung, (j) spleen, and (k) intestine of female (n = 4) mice. […] Data were quantified from μPET images.
^64Cu-radiolabeled pTrMA-co-DOTA was incubated in plasma collected from a female C57BL/6 mouse at 37 °C for 24 h. […] Co-registered μPET/μCT images were analyzed, and MIPs were generated using AMIDE software.

[2] = C57HL/6 mice, 72 h; cited from earlier work
From the text: In the final time points of the extended μPET/μCT experiment, the signal in the liver still appeared to be going down, while the study co ...

[3] = Differential scanning calorimetry, melting temperature of insulin; assay type: physicochemical; settings: DSC; insulin 10 mg/mL in 10 mM HCl; pTrMA 5 mol equiv or trehalose 50 mg/mL
From the text: In addition, differential scanning calorimetry was undertaken to study the melting temperature of the insulin. […] Thus, it is unlikely that the change in melting temperature is a significant factor in protein stabilization.

[4] = Accelerated heating assay of insulin (90 °C, 30 min), HPLC and PAGE; assay type: physicochemical; settings: DPBS pH 7.4, insulin 1 mg/mL final, pTrMA 28.1 kDa 2 mol equiv, 0.22 μm filtered, RP-HPLC, n = 3
Protocol: The formulations were heated to 90 °C for 30 min. […] The heated samples were also investigated by native polyacrylate gel electrophoresis (PAGE) for changes to MW or isoelectric point for evidence of chemical changes or aggregate formation (Figure 8b).
For all *p < 0.05, **p < 0.01, and ***p < 0.001.
(§1) The samples were stored at 4 °C or heated to 90 °C for 30 min in ambient light. Aliquots of each insulin sample were used directly for SDS and native PAGE as well as ThT assay. […] ThT was prepared at 50 μM (0.0159 mg/mL) in 20 mM DPBS pH 7.4. Into a black 96-well plate, 50 μL of each sample was pipetted. To these was added 250 μL of ThT solution, and the plate was incubated at room temperature (21 °C) for 20 min. Fluorescence intensity was measured on a Tecan M1000 plate reader (λex = 450 nm, λem = 482 nm).

[5] = SEC-MALS oligomerization state of insulin; assay type: physicochemical; settings: insulin 30 mg/mL, 0.1 M PBS pH 7.4; pTrMA 26.0 kDa 30 mg/mL; fresh or heated 90 °C 30 min
[6] = Thioflavin T (ThT) fibrillation assay; assay type: physicochemical; settings: 90 °C, 30 min; ThT 50 μM, 20 min at 21 °C; λex 450 nm, λem 482 nm; n = 3
Protocol: as §1, with “In addition, differential scanning calorimetry was undertaken to study the melting temperature of the insulin. […] Thus, it is unlikely that the change in melting temperature is a significant factor in protein stabilization. […] The” for “The”

[7] = Long-term insulin stability at 4 °C, RP-HPLC; assay type: physicochemical
Protocol: To study relevant storage, the formulations were kept at a standard refrigeration temperature at 4 °C for 46 weeks.
The samples were stored at 4 °C for […], followed by regular sampling.

[8] = test system: IgG and IgM antibodies specific to OVA or pTrMA; assay: Antibody immunogenicity study, IgG and IgM immune ELISA of serum; assay type: in vivo; settings: female CD-1 mice, n = 5–6; i.p. at weeks 0 and 2; OVA 2 mg/kg, pTrMA 10 wt %; serum weeks 1-3; ELISA vs naïve serum
Protocol: To study the adaptive immune response in the form of antibody production, mice were challenged at weeks 0 and 2 with the model immunogenic protein ovalbumin (OVA, 2 mg/kg) as a positive control, pTrMA (10 wt % or 100 mg/mL), or both OVA + pTrMA (2 mg/kg OVA, 10 wt % pTrMA) via intraperitoneal (i.p.) injection. Serum was collected each week, and the immunoglobulin IgG and IgM antibodies specific to OVA or pTrMA were measured by ELISA. For ELISA, OVA or bovine serum albumin (BSA) conjugated with pTrMA (Figure S1) was adsorbed for 16–18 h on microplate wells to capture any antibodies in the serum. Serum from challenged mice and naïve mice as a negative control was measured for antibodies against the challenge antigen, OVA, or the BSA–pTrMA conjugate. Serum from the mice treated with OVA and pTrMA was tested against both OVA and the BSA–pTrMA conjugate. Testing against both antigens measured if the polymer increases the immunogenicity of OVA and, conversely, if the presence of an immunogenic protein, OVA, elicited an immunogenic response to the polymer (Figure S2).
Figure 2 Antibody levels in mice specific to OVA or pTrMA (BSA–pTrMA conjugate) antigens over 3 weeks after i.p. injection of OVA (2 mg/kg), OVA + pTrMA (2 mg/kg, 10 wt %), or pTrMA (10 wt %) at weeks 0 and 2 (n = 5–6). […]

Molecule: [64Cu+2].[Cl-].[Cl-] [^64CuCl2]
- total signal remaining at the 24 h time point [1]: 56.3 ± 19.7%
- accumulation in the kidneys [2]: 10 % ID/cc
- accumulation in the liver [2]: 13 % ID/cc

Molecule: OC[C@H]1O[C@H](O[C@H]2O[C@H](CO)[C@@H](O)[C@H](O)[C@H]2O)[C@H](O)[C@@H](O)[C@@H]1O [trehalose]
- melting temperature of insulin (alone or with the named additive) [3]: 88.8 °C

Molecule: insulin: Recombinant human insulin purchased from Sigma-Aldrich
- degradation (deamidation at AsnB3) after heating, HPLC [4]: very little intact insulin remaining
- melting temperature of insulin (alone or with the named additive) [3]: 86.6 °C
- oligomerization state by SEC-MALS [5]: no hexameric insulin was present
- ThT fluorescence signal [6]: significantly higher (p < 0.01) fluorescence signal than fresh insulin
- intact insulin, % of the original level, after 20 weeks ([7]; DPBS pH 7.4, insulin 1 mg/mL final, pTrMA 10.1 kDa 2 mol equiv, 0.22 μm filtered, RP-HPLC, n = 3, mean ± SEM): 67.4 ± 7.0%
- appearance of solution (aggregation) during weeks 20-46 ([7]; DPBS pH 7.4, visual): visually cloudy

B1: OVA: model immunogenic protein ovalbumin, positive control (protein, UniProt P01012 2-386, looked up)
Ovalbumin: GSIGAASMEFCFDVFKELKVHHANENIFYCPIAIMSALAMVYLGAKDSTRTQINKVVRFDKLPGFGDSIEAQCGTSVNVHSSLRDILNQITKPNDVYSFSLASRLYAEERYPILPEYLQCVKELYRGGLEPINFQTAADQARELINSWVESQTNGIIRNVLQPSSVDSQTAMVLVNAIVFKGLWEKAFKDEDTQAMPFRVTEQESKPVQMMYQIGLFRVASMASEKMKILELPFASGTMSMLVLLPDEVSGLEQLESIINFEKLTEWTSSNVMEERKIKVYLPRMKMEEKYNLTSVLMAMGITDVFSSSANLSGISSAESLKISQAVHAAHAEINEAGREVVGSAEAGVDAASVSEEFRADHPFLFCIKHIATNAVLFFGRCVSP
- OVA-specific IgG response [8]: increased in both weeks 2 and 3
- OVA-specific IgM response [8]: only elevated in the first week
